In patent US20180155451A1 (published 2018):

T1: FcγRIIb extracellular domain with C-terminal His tag (human, UniProt P31994 43-217)
T1 construct: extracellular domain; also called FcgRIIb; 2b; not shown: His tag at the C terminus
T1 sequence (looked up): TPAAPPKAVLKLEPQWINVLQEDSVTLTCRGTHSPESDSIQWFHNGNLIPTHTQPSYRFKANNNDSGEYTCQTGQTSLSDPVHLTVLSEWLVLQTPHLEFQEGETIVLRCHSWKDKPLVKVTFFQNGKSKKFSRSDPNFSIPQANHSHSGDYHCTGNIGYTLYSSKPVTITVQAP

B1: GpH7-A5/GpH7-B3 variant G237_06M/GpL16-k0 (heterodimerized antibody, He Ab) (antibody, human IgG1, kappa)
heavy 1: not shown
heavy 2: not shown
light: DIVMTQSPLSLPVTPGEPASISCQASESLVHSNRNTYLHWYLQKPGQSPQLLIYKVSNRFSGVPDRFSGSGSGTDFTLKISRVEAEDVGVYYCSQNTHVPPTFGQGTKVEIERTVAAPSVFIFPPSDEQLKSGTASVVCLLNNFYPREAKVQWKVDNALQSGNSQESVTEQDSKDSTYSLSSTLTLSKADYEKHKVYACEVTHQGLSSPVTKSFNRGEC
notes: Anti-glypican-3 IgG1; the alteration is in the GpH7-B3 chain only; also called G237M
B2: GpH7-A5/GpH7-B3 variant G237_08L/GpL16-k0 (heterodimerized antibody, He Ab) (antibody, human IgG1, kappa)
heavy 1: not shown
heavy 2: not shown
light: DIVMTQSPLSLPVTPGEPASISCQASESLVHSNRNTYLHWYLQKPGQSPQLLIYKVSNRFSGVPDRFSGSGSGTDFTLKISRVEAEDVGVYYCSQNTHVPPTFGQGTKVEIERTVAAPSVFIFPPSDEQLKSGTASVVCLLNNFYPREAKVQWKVDNALQSGNSQESVTEQDSKDSTYSLSSTLTLSKADYEKHKVYACEVTHQGLSSPVTKSFNRGEC
notes: Anti-glypican-3 IgG1; the alteration is in the GpH7-B3 chain only; also called G237L
B3: GpH7-A5/GpH7-B3 variant G237_09D/GpL16-k0 (heterodimerized antibody, He Ab) (antibody, human IgG1, kappa)
heavy 1: not shown
heavy 2: not shown
light: DIVMTQSPLSLPVTPGEPASISCQASESLVHSNRNTYLHWYLQKPGQSPQLLIYKVSNRFSGVPDRFSGSGSGTDFTLKISRVEAEDVGVYYCSQNTHVPPTFGQGTKVEIERTVAAPSVFIFPPSDEQLKSGTASVVCLLNNFYPREAKVQWKVDNALQSGNSQESVTEQDSKDSTYSLSSTLTLSKADYEKHKVYACEVTHQGLSSPVTKSFNRGEC
notes: Anti-glypican-3 IgG1; the alteration is in the GpH7-B3 chain only; also called G237D
B4: GpH7-A5/GpH7-B3 variant G237_10E/GpL16-k0 (heterodimerized antibody, He Ab) (antibody, human IgG1, kappa)
heavy 1: not shown
heavy 2: not shown
light: DIVMTQSPLSLPVTPGEPASISCQASESLVHSNRNTYLHWYLQKPGQSPQLLIYKVSNRFSGVPDRFSGSGSGTDFTLKISRVEAEDVGVYYCSQNTHVPPTFGQGTKVEIERTVAAPSVFIFPPSDEQLKSGTASVVCLLNNFYPREAKVQWKVDNALQSGNSQESVTEQDSKDSTYSLSSTLTLSKADYEKHKVYACEVTHQGLSSPVTKSFNRGEC
notes: Anti-glypican-3 IgG1; the alteration is in the GpH7-B3 chain only; also called G237E
B5: GpH7-A5/GpH7-B3 variant G237_13S/GpL16-k0 (heterodimerized antibody, He Ab) (antibody, human IgG1, kappa)
heavy 1: not shown
heavy 2: not shown
light: DIVMTQSPLSLPVTPGEPASISCQASESLVHSNRNTYLHWYLQKPGQSPQLLIYKVSNRFSGVPDRFSGSGSGTDFTLKISRVEAEDVGVYYCSQNTHVPPTFGQGTKVEIERTVAAPSVFIFPPSDEQLKSGTASVVCLLNNFYPREAKVQWKVDNALQSGNSQESVTEQDSKDSTYSLSSTLTLSKADYEKHKVYACEVTHQGLSSPVTKSFNRGEC
notes: Anti-glypican-3 IgG1; the alteration is in the GpH7-B3 chain only; also called G237S
B6: GpH7-A5/GpH7-B3 variant G237_15Y/GpL16-k0 (heterodimerized antibody, He Ab) (antibody, human IgG1, kappa)
heavy 1: not shown
heavy 2: not shown
light: DIVMTQSPLSLPVTPGEPASISCQASESLVHSNRNTYLHWYLQKPGQSPQLLIYKVSNRFSGVPDRFSGSGSGTDFTLKISRVEAEDVGVYYCSQNTHVPPTFGQGTKVEIERTVAAPSVFIFPPSDEQLKSGTASVVCLLNNFYPREAKVQWKVDNALQSGNSQESVTEQDSKDSTYSLSSTLTLSKADYEKHKVYACEVTHQGLSSPVTKSFNRGEC
notes: Anti-glypican-3 IgG1; the alteration is in the GpH7-B3 chain only; also called G237Y
B7: GpH7-A5/GpH7-B3 variant G237_16H/GpL16-k0 (heterodimerized antibody, He Ab) (antibody, human IgG1, kappa)
heavy 1: not shown
heavy 2: not shown
light: DIVMTQSPLSLPVTPGEPASISCQASESLVHSNRNTYLHWYLQKPGQSPQLLIYKVSNRFSGVPDRFSGSGSGTDFTLKISRVEAEDVGVYYCSQNTHVPPTFGQGTKVEIERTVAAPSVFIFPPSDEQLKSGTASVVCLLNNFYPREAKVQWKVDNALQSGNSQESVTEQDSKDSTYSLSSTLTLSKADYEKHKVYACEVTHQGLSSPVTKSFNRGEC
notes: Anti-glypican-3 IgG1; the alteration is in the GpH7-B3 chain only; also called G237H
B8: GpH7-A5/GpH7-B3 variant G237_18N/GpL16-k0 (heterodimerized antibody, He Ab) (antibody, human IgG1, kappa)
heavy 1: not shown
heavy 2: not shown
light: DIVMTQSPLSLPVTPGEPASISCQASESLVHSNRNTYLHWYLQKPGQSPQLLIYKVSNRFSGVPDRFSGSGSGTDFTLKISRVEAEDVGVYYCSQNTHVPPTFGQGTKVEIERTVAAPSVFIFPPSDEQLKSGTASVVCLLNNFYPREAKVQWKVDNALQSGNSQESVTEQDSKDSTYSLSSTLTLSKADYEKHKVYACEVTHQGLSSPVTKSFNRGEC
notes: Anti-glypican-3 IgG1; the alteration is in the GpH7-B3 chain only; also called G237N
B9: GpH7-A5/GpH7-B3 variant G237_19Q/GpL16-k0 (heterodimerized antibody, He Ab) (antibody, human IgG1, kappa)
heavy 1: not shown
heavy 2: not shown
light: DIVMTQSPLSLPVTPGEPASISCQASESLVHSNRNTYLHWYLQKPGQSPQLLIYKVSNRFSGVPDRFSGSGSGTDFTLKISRVEAEDVGVYYCSQNTHVPPTFGQGTKVEIERTVAAPSVFIFPPSDEQLKSGTASVVCLLNNFYPREAKVQWKVDNALQSGNSQESVTEQDSKDSTYSLSSTLTLSKADYEKHKVYACEVTHQGLSSPVTKSFNRGEC
notes: Anti-glypican-3 IgG1; the alteration is in the GpH7-B3 chain only; also called G237Q

Experiments:
[1] = target: T2, FcγRIIIa extracellular domain with C-terminal His tag (human, UniProt P08637 17-208); assay: SPR (Biacore), captured antibody, FcγR as analyte; relative to GpH7-A5/GpH7-B3/GpL16-k0 = 100
T2 construct: extracellular domain; also called FcgRIIIa; 3a; not shown: His tag at the C terminus
Experimental: (§1) Analysis of interaction between objective antibody and the FcγR was carried out using Biacore T100 (GE Healthcare). HBS-EP+ (GE Healthcare) was used as the running buffer, and the measurement temperature was set to 25° C. Chips produced by immobilizing the antigen peptide by the amine coupling method to a Series S Sencor Chip CM5 (GE Healthcare), or alternatively, chips produced by allowing preliminarily biotinylated antigen peptides to interact with and immobilize onto a Series S Sensor Chip SA (certified) (GE Healthcare) were used. Antibodies of interest were captured onto an antigen peptide-immobilized chip, and allowed to interact to each FcγR diluted with running buffer. To regenerate and repeatedly use the chip, the antibodies captured on the chip were washed off by reacting 10 mM glycine-HCl, pH 1.5.
(§2) The FcγR-binding activity of each antibody was assessed primarily using as an indicator the FcγR-binding activity and dissociation constant for FcγR.

[2] = target: T1, FcγRIIb extracellular domain with …; assay: as above
Experimental: as §1, §2

T2 sequence (P08637 17-208): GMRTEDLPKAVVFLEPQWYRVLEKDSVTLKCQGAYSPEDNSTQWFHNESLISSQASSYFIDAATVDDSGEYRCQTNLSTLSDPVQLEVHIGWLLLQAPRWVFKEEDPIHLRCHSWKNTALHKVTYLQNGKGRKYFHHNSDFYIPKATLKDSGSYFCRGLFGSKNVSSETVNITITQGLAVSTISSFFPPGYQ

Row | Binder | He/Con_3a (IIIa binding) [1] | He/Con_2b (IIb binding) [2]
1 | B1 | 31.9 % of HeCon Ab | 130 % of HeCon Ab
2 | B2 | 24.9 % of HeCon Ab | 148 % of HeCon Ab
3 | B3 | 17.7 % of HeCon Ab | 223 % of HeCon Ab
4 | B4 | 25.4 % of HeCon Ab | 114 % of HeCon Ab
5 | B5 | 38.4 % of HeCon Ab | 111 % of HeCon Ab
6 | B6 | 22.1 % of HeCon Ab | 152 % of HeCon Ab
7 | B7 | 17.2 % of HeCon Ab | 55.2 % of HeCon Ab
8 | B8 | 20.3 % of HeCon Ab | 180 % of HeCon Ab
9 | B9 | 43.3 % of HeCon Ab | 108 % of HeCon Ab
